The record followed here is PMC6450391 (Nature immunology, 2019).

In this test the target is T1, 1CARD-SUMO (caspase-1 CARD with carboxy-terminal SUMO, after TEV cleavage of MBP-1CARD-SUMO) (human, UniProt P29466 1-91).
T1 sequence (looked up): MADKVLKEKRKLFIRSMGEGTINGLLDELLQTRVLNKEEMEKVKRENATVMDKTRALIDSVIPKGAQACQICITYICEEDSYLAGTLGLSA
Description: cross-linking.

B1: SERPINB1, purified, amino-terminal SUMO cleaved (natural protein, human, UniProt P30740 1-379, looked up)
chain: MEQLSSANTRFALDLFLALSENNPAGNIFISPFSISSAMAMVFLGTRGNTAAQLSKTFHFNTVEEVHSRFQSLNADINKRGASYILKLANRLYGEKTYNFLPEFLVSTQKTYGADLASVDFQHASEDARKTINQWVKGQTEGKIPELLASGMVDNMTKLVLVNAIYFKGNWKDKFMKEATTNAPFRLNKKDRKTVKMMYQKKKFAYGYIEDLKCRVLELPYQGEELSMVILLPDDIEDESTGLKKIEEQLTLEKLHEWTKPENLDFIEVNVSLPRFKLEESYTLNSDLARLGVQDLFNSSKADLSGMSGARDIFISKIVHKSFVEVNEEGTEAAAATAGIATFCMLMPEENFTADHPFLFFIRHNSSGSILFLGRFSSP
Consider B1, for which the “fold decrease in 1CARD oligomer with SERPINB1 against without SERPINB1” value worked out at 4.18 fold and the “fold increase in 1CARD monomer with SERPINB1 against without SERPINB1” value stood at 7.48 fold.
